According to a protein production outcome set (Wang et al. 2014):

Assay: label from the status in PepcDB records

With “MEIIAAILVGIVALEHLFIMILEMFFMNSKVAKRAFKLPEHLEGDRNVAIMFANQGLYNGFLAVGLIWGLILGFNSIGYMVQLFFVMCVVVAALFGGFTSNKSIIVKQGLPAILALIALLIVI” as the sequence, how does the protein production read?
Its protein production is “failed”.

With “MEIKDLKRLARYNPEKMAKIPVFQSERMLYDLYALLPGQAQKVHVHEGSDKVYYALEGEVVVRVGEEEALLAPGMAAFAPAGAPHGVRNESASPALLLVVTAPRP” as the sequence, how does the protein production read?
Its protein production is “not failed”.

For “MEINRQIIHPLIFVAFFVTITGSVAGAAAAPEVNMELVGHFGGTTDAVDVAGNYAYVGQGQDFLILDITNPSSPVLVSKIMTEGFVRDIKVSRNYAYVADDDNGLVIVDISNPSSPTLKGSYNIPGYTYCITVSGNYAYVADNDGLVIVDISNPSDPILKGRYAGPTGDVAVYGNYAYVADWGNGLMIVDISNPSSPVLKGSYDTAGDIYGVSISGNYAYVADGDTGLVIVDISNPSSPTLKGNYNTAGIACDVSVLGNYAYVADNDNGLVIVDISDPSSPVLKGNGSTTGYAHGIEVSGNYAYVANSNTGLVIVDISNPSSPTLKGSCDTIVRAKSIAVSGNYAYIADWDNGLVIVDISNPSSPFLKGSCDTPRSAQGVAVSGNYAYVADDDGLVIVDISNPSFPILNKSYNTGGWAQGITVSGNYAYVIDMANGIFIVDISNPSSPILEGMYDTSPIIIENYDYTGSIWSVSVSGNYAYVADEGNGLLIVDISNPSSPILKGSYDTAGLAYDVAVSGNYAYVADSKNGLAIIDISNPSSPILVGNYNTSGYAECVSISGNYAYVAVDDSLVVVDISNPSSPILKGLYAGSAGDIAVSGNYVYASEGVNGLVILKANPESAFTVADFSSNITSGYAPLSIQFNDHSQNATSWNWDFGDGYNSTNQNPIHTYSSAGTYTVNLTVINENRTASKVAKIFVLNTSSSTEENSSGSEETGGDGVILTKDTGAPTKERKITPGFEIVYWVVSLLVAFWIKGSNKK”, which protein production is on record?
Its protein production is “failed”.

With “MEIRMAAAADFAEIWPLFQAVISSGDTYVFTPDTPEQDAYDYWFGAGVRCWVAVHEGRVVGMYKLIDNQRGLGNHVANASFMVDGEARGLGIGKALGLHCIKQATDLGYRAIQFNFVVSTNTLAVALWQKLGFEIIATLPGAFNHSQLGYVDAYVMHRALLPN” as the sequence, how does the protein production read?
Its protein production is “failed”.

Which protein production does the source give for “MEIRNVKGTKDYLPEEQVLRSKIKRACEDTFERYGCKPLETPTLNMYELMSYKYGGGDEILKEIYTLQDQGKRDLALRYDLTIPFAKVVAMNPNIRLPFKRYEIGKVFRDGPIKQGRFREFIQCDVDIVGVESVMAEAELMSMAFELFQTLNLEVTIQYNNRKLLNGILQAINIPTELTSDVILSLDKIEKIGIDGVRKDVLERGISEEMADTICNTVLSCLQLSIADFKEAFNNPLVADGVNELQQLQQYLIALGINENTIFNPFLARGLTMYTGTVYEIFLKDGSITSSIGSGGRYDNIIGAFRGDDMSYPTVGISFGLDVIYTALSQKETISST” here?
The protein production was “not failed”.

With “MEITKRIEELREEMVESLKKFISINSVNPAFGGPGEKEKADWLEGLLRDFGFEVDRCDVRDDRGIWRSNIVAKIPGKNREKTLWIVTHIDTVPPGDLSLWETDPFVPVVKDGKVYGRGAEDNGGSMIASIYAGKALIDLGITPEYNFGLALVADEEAGSEYGIQYLIEKGLFSPEDMFLVPDAGNEKGDFIEIAEKSILWFKVMVNGKQGHASRPQTTENALRKGAHLITEIDEALHRKYSDRDELFDEPLSTFEPTRAEKTVDNVNTVPGRFVFYFDCRVLPRYNLDEVLSIVKSILDGRGAELEVVVKQPAPEPTPPDSELVVKLSNVLRSLRGLEAKVGGIGGGTCAAFFRKKGWPAVVWSTIDETAHQPNEYRRISHMVEDAKVFALLGTER” as the sequence, how does the protein production read?
Its protein production is “not failed”.

With “MEITVIASSSIDEGIGSWDLKTGTEQLQFKPCASPAHGLTAVGEKFLASSQLSARNTSGSIFYWSWTKPQAEVKSYPVEPIKALAANNEGTYLVGGGISGDIYLWEVATGKLLKKWHGHYRSVTCLVFSGDDSLLVSGSQDGSIRVWSLIRLFDDFQRQQGNTLYEHNFNEHTMSVTDIVIDYGGCNAVIISSSEDRTCKVWSLSRGKLLKNIIFPSVINALALDPGGCVFYAGARDSKIYIGAINATSEYGTQVLGSVSEKGKAITCLAYCADGNLLISGSEDGVVCVWDPKSLRHVRTLIHAKGSRKGPVNNIQIVRKTIVANSNKTQVSWKSRGALIPPPLEKYERPVEDTMDGIVTVDPPPFSDVPVYSSFLSADLIDEQVKELQQQGSAATEMEMERLKLEYKRSLQMNEQWQKNYENLLQVVMEEEQIGGTN” as the sequence, how does the protein production read?
Its protein production is “failed”.

Which protein production does the source give for “MEIYLVFVDAASNSNKFWTAKVEQNQLTVQWDRVGYKAQTKVHQFTSQAQAANKYNNLVFEKKAKGYQESQPQIESCGVVDIRRAMQLLNGLRSYVTNRNFNADYINLLNQYLKIIPTPLGMQLEPYRIFTSVADVDHQRELLSSLIPATPVAVTQAKQMPESQEKIVSLRGIHKNLWRHFLEHHHHHH” here?
Its protein production is “failed”.

For “MEKCSVGGLELTEQTPALLGNMAMATSLMDIGDSFGHPACPLVSRSRNSPVEDDDDDDDVVFIESIQPPSISAPAIADQRNFIFASSKNEKPQGNYSVIPPSSRDLASQKGNISETIVIDDEEDVETNGGAEKKSSFFIEWGLPGTKNKTNDLDFSTSSLSRSKTKTGVRPFNPGRMNVAGDLFQNGEFATHHSPEMHLQRRLMSFFQ”, which protein production is on record?
The protein production was “not failed”.

For “MEKDDATASFSPSFSTYSGDRLVEIAERVCYKEKSDAEFEFSTAATSSSGDGGLVFPVFNKNLISGDVSPEKVIPLKDLFLRERNDQQPPQQTYSSSSDEEEEDDEFDSIPSEIYCPWTPARSTADMSPSGGCRKSKSTGSSSTSTWSTKRWRLRDFLKRSKSDGKQSLKFLNPTNRDDDDESSKSKKKVSVSVTVSAHEKFYLRNKAIKEEDKRKSYLPYKQDLVGLFSNIHRYGKTFPPF”, which protein production is on record?
Its protein production is “failed”.

Which protein production does the source give for “MEKDDSNDGSIIGGNGITAGKDVFLHNIKAPVNIGNTNNTNQNYTTYIISENIEEHTKSLIDFAQFCENKREYEKALDYYEQARVKLEKSESKILLVKVMMGEAVCHHKKGNLSRAKNLIFEAERLDPKNPTVLANIASQLKSENPDEAEIYAKKALEFDKNNFLAKCVIGLLEYDKGNIKDSLRTLKQASTINPNVGYPFNCMARIYSSEKDYGNAIKYGKKAVKIESDNAIFLMELAIDYMNIAFPENEVCISSDFSKMLKMEYLEKALKCLEKAKEMSESQGNNYLNCEIYTYLSRVHLAKGEFNKSIEYCEMIINSGLDTIDIYIILGEAYGECQNYDKVIEYYELLLKRENLTENHLFIVKANLATSYFYKNRLNEAEKLFKELIDENPENINLCIQMSNVLEENGKIEKAFSLLEKIDKFSQKPWDFYYMMGRLYHKKDDYESSVKYLKEAISKNSEAIPPRIYLINLYLECGMHKYAVKQAIELIQLAPTGINFYKLASLYYEIGDYKESAVFSRKALEADYGKVETYRLLCSSLLEANKLSEAKDEFENAFTKYPDDLELKLNYSATLSALEYTEKAIEILTQIISNDPNVVFAYKALARIYYKEASYEIALEYSKKAVFIEPEDEDAHFVMGCSLLNLGKNDEAVEEIQKVIEINPNFDSAWLIDAEKGMEYLGNLITISNHIIERYENGNITISKVGELLIKDTFDLLCHINNVKVAESLSLSDEKIDQLRNSPISKRDVLVDETMLGILAKTGSLDLLRLAFDHVYVIKELEDKIVIGPYLKDHPYRDVKNKLQIIDGGWIESLNPNDMIALATKKIVVENKFSKNDISFIALALDKDFLCLTEDLLLRIQLESINKPTCGIFGFVNYAVSKNIIKQDDAEKIFTKVKSVCIVE” here?
Its protein production is “failed”.

With “MEKDKKTTAKIYPFYPNGQFYFERGVEAFREQRIKEAIRYLVRASELEPGEPVILCQLAICYTEIGQFHKSNQLLREIMEKRLGNMEYCYYFIANNFAYMKDYRRALQYASRYLEIAADGDYAEEAKDLIEVLLEETPFGETIENGFSKLEQEFYSYKKEINRYLAEEDSASACDILKKVIDEKPNFWPAYNQLAALYFEQLKEEEGVKVLSDLIARNPGNLLGLCDLFIYHFYKGNREEADSLYSELRDVLPVLSHHKEKIGLIHAMMGDYEEADDLLEQVADLEVTERSKYYYYRAKSAYYLDEVEEAKMFWHSFLECDLYEDTRFPWEQEADLTNDTRLVLEMLQAESDMTHLLGVYAMTVSGNRPEFVLFHPLLDMSSWSYMEHLMFTDFDYFPDGNVEQNCYLIMKAMTILRENGLLLNEENLPLYETIFSLVLMENRKELILGRYTIETVASAIAKIFLPEMKLASVDEFECSKCARDIEQFLSR” as the sequence, how does the protein production read?
Its protein production is “failed”.

With “MEKDLLDKLGQHLVWRMGRAEDEDVLVVRVGLASATPRFRELPRLLNLPEAEMRRLVQEGRVRVEWVEE” as the sequence, how does the protein production read?
The protein production was “not failed”.

For “MEKFQENNILEDKKVCINENEEAWNKETYNAWIKRFGTAKEAAEKIKSMPEKKLNVLLDKFGDVKGKKIFNLMGSNGNKAVALALLGADVTVVDFSEGNRRYALDLAEACGVKINFILSDVLRMPKEVMSGDYDIVFAEMGILHYFSDLSPFMNVIHSLLKDGGKAVLRDFHPVSTKLITSRGSTAKVRKHKVTGDYFDTSLEEKEVAYSKYLEEGEVEKVFLRKWNLGEIVTAVANTGLKIESLTEEPNLSSDVFDKGIPKTFTIVARK”, which protein production is on record?
Its protein production is “failed”.

For “MEKHKIALISDWYFPKVGGIEYSIHALAKTLNQRGHKVHVITRCYPNIPEYNIRDGVAIIRIKSSPFPGQQRFLMPGAYKELYRLLKEGNYDIINSHGLDSPLGMIALIAARKLGIPSVVTNHSLVGHTPLRLYLYLAGKLLVGNADAVIAVSSAVEKDTKLMTKKPVYRIFNGMEYEESNPIAPLPFDRKGKLVIITVARMTKKKGVQNLIGLAPSFLKKYENLIFLMIGDGPLLKNLEKKVEESGLSENFYFTGEVPRKAVLEYLEQADIFALPSSDEAFGISILEAISKNVPVVAMNHSGISDIITHGVNGYLADNLSEFASCLQDLIEKPALRAEFARKAGEGLSNYDWNKIYEQTCRVYREVIYEKHHHNS”, which protein production is on record?
The protein production was “failed”.

With “MEKIAILVDVQNVYYTCREQYGRHFDYNQFWSQVTQNRTVVKANAYAIASKDPQQRQFHHILRGIGFEVMLKPFIQRSDGSAKGDWDVGIALDGYELAQEVDTVVLVSGDGDFEPLVTRIAQRFQVKVEVYGVPKLTAQHLIDVASQFHPIEHRLL” as the sequence, how does the protein production read?
Its protein production is “failed”.

For “MEKKKPFSVLLMGSDARPGETNGRADTIILATANKQQNAVEMVSIPRDTKVDYGNGDIGKINASYSNGGPSGTVSAVEKLMPGVPVDYFISINMEGFKDLVDAVGGITVYNDIDLTEVNSKFVKGNITLNGTDALQYVRIRHEDPRGDFGRQDRQRDVIIGIANKVISSSGVSNFESIMKAVGDNFQTNMTLTDITSMATNYSSVLKNVDSQELKGEGEMIYSESYGFDLYYFAPDETDLERVINMFKKSLDITELEHHHHHH”, which protein production is on record?
Its protein production is “not failed”.

With “MEKLKEFRGIKEHLGVFREAVKDAERIGFAGVPGVCTPFAQLFAYAVRDKDNIFIPNTDFSKARKLEVTEYGVELGEISPGNVDVLVLLGGLSMPGIGSDIEDVKKLVEDALEEGGELMGLCYMDMFARAGWYELLDFDCVINADIDGYVLRG” as the sequence, how does the protein production read?
Its protein production is “not failed”.

For “MEKLLTVFTPTYNRVHTLHKCYESLKNQSCKDFKWLIIDDGSTDGTKDVVKRWIHEKNDFEITYIYQSNKGMHGAHNTAYENIDTELNICIDSDDYMPRDAVEKINKNWNRVKHNKKISGLVGLDSYENGDVIGKKFPEGLKEATLFEINNKYKIPGDKKLVYRSELTKKFPYPIFEGEKYVGLAYKYYKLDEEHRLALINDILCVVEYLEDGSSKNMIKQYKNNPKGFAFYRIENIKNSKATLKFKFKESIHYVASSFISKNKNFLIESPEKILTLLSIPMGMLLYLYIKIKG”, which protein production is on record?
The protein production was “failed”.
